This passage reports MFI fold over untransduced Dubca cells results from patent US20260027209A1.

This test deals with human Claudin-6 (human) (UniProt P56747). The test can be described thus: flow cytometry on Dubca.huCLDN6.Luc cells against Dubca cells.
Chain of UniProt P56747 (P56747 whole entry): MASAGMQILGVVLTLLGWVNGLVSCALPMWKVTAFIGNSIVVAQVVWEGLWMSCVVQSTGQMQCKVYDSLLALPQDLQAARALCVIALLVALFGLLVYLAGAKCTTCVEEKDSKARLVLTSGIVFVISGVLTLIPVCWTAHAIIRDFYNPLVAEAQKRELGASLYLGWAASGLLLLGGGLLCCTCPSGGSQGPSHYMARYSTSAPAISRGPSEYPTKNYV

On to “human CLDN6 AlexaFluor 700-conjugated antibody (R&D, Cat. No. FAB3656N)”, for which the MFI fold over untransduced Dubca cells came out at 203 fold.
